This note sets out measurements from paper PMC5849677.

Assay [1] concerns the target native hC3d purified from human serum (human). Briefly: SPR; Biacore; hC3d or C3d(g)-Fc fusions immobilised by amine coupling (94.3-96.2 RU); Fc-fusion analytes 0.195-50 nM in HBS-EP+, physiological salt, 360 s injection; steady state affinity model; apparent KD. (Surface plasmon resonance follows binding to a sensor surface in real time, without labels.)
For assay [2], the target named is hC3d,g (s)-Fc (Cys to Ser variant of hC3dg-Fc) (human) (UniProt P01024). Described as above.

Turning to “hCR2 (SCR1-4)-Fc (from UniProt P20023 21-273) (Fc fusion)”, the Kd was found to be 10.6 nM in assay [1] and 2.6 nM in assay [2].
